{"source": "paper PMC6235402", "about": "“Paired Immunoglobulin-like Type 2 Receptor Alpha G78R variant alters ligand binding and confers protection to Alzheimer's disease” (PLoS Genetics, 2018)", "binders": {"B1": {"name": "NPDC1 extracellular domain (1-190 aa) fused to murine IgG2a Fc (Fc fusion)", "chain": "GHPDVAACPGSLDCALKRRARCPPGAHACGPCLQPFQEDQQGLCVPRMRRPPGGGRPQPRLEDEIDFLAQELARKESGHSTPPLPKDRQRLPEPATLGFSARGQGLELGLPSTPGTPTPTPHTSLGSPVSSDPVHMSPLEPRGGQGDGLALVLILA"}, "B2": {"name": "NPDC1-His (ligand, human, UniProt Q9NQX5 35-190, looked up)", "chain": "B1 chain", "notes": "the construct and its limits are not described in the methods; Likely a soluble extracellular construct"}}, "key": {"[1]": {"biological_target": "PILRA S80G, full length (human) (UniProt Q9UKJ1)", "sequence (Q9UKJ1 20-303 S80G)": "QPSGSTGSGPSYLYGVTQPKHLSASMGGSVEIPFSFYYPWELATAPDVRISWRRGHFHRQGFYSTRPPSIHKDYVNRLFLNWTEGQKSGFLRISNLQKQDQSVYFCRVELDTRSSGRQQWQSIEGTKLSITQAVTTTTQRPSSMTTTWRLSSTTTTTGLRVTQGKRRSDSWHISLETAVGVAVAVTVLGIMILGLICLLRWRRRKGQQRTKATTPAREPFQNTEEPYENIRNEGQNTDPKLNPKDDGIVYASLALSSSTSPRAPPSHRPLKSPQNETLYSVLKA", "assay": "flow cytometry on cells; 293T cells transfected with full-length PILRA variants, 48 h; incubated with soluble NPDC1-mFc at 50 ug/ml for 30 min on ice; anti-PILRA (APC) and anti-mouse IgG2a (FITC); percent of double-positive cells relative to G78 PILRA (100%)"}, "[2]": {"biological_target": "PILRA R78 (AD protective) variant, G78R (rs1859788), full length (human) (UniProt Q9UKJ1)", "sequence (Q9UKJ1 20-303, stated change not applied)": "as the sequence (Q9UKJ1 20-303 S80G) above, with G61S counted along it", "assay": "flow cytometry on cells; 293T cells transfected with full-length PILRA variants, 48 h; incubated with soluble NPDC1-mFc at 50 ug/ml for 30 min on ice; anti-PILRA (APC) and anti-mouse IgG2a (FITC); percent of double-positive cells relative to G78 PILRA (100%)"}, "[3]": {"biological_target": "PILRA F76A, full length (human) (UniProt Q9UKJ1)", "sequence (Q9UKJ1 20-303 F76A)": "as the sequence (Q9UKJ1 20-303 S80G) above, with F57A, G61S counted along it", "assay": "flow cytometry on cells; 293T cells transfected with full-length PILRA variants, 48 h; incubated with soluble NPDC1-mFc at 50 ug/ml for 30 min on ice; anti-PILRA (APC) and anti-mouse IgG2a (FITC); percent of double-positive cells relative to G78 PILRA (100%)"}, "[4]": {"biological_target": "PILRA R72A, full length (human) (UniProt Q9UKJ1)", "sequence (Q9UKJ1 20-303 R72A)": "as the sequence (Q9UKJ1 20-303 S80G) above, with R53A, G61S counted along it", "assay": "flow cytometry on cells; 293T cells transfected with full-length PILRA variants, 48 h; incubated with soluble NPDC1-mFc at 50 ug/ml for 30 min on ice; anti-PILRA (APC) and anti-mouse IgG2a (FITC); percent of double-positive cells relative to G78 PILRA (100%)"}, "[5]": {"biological_target": "PILRA R78 (AD protective) variant, G78R (rs1859788), full length (human) (UniProt Q9UKJ1)", "assay": "flow cytometry on cells; 293T cells transfected with full-length PILRA variants, 48 h; incubated with soluble NPDC1-mFc at 50 ug/ml for 30 min on ice; anti-PILRA (APC) and anti-mouse IgG2a (FITC); percent of double-positive cells relative to G78 PILRA (100%)", "remark": "listed apart in the source"}, "[6]": {"biological_target": "PILRA S141A, full length (human) (UniProt Q9UKJ1)", "sequence (Q9UKJ1 20-303 S141A)": "as the sequence (Q9UKJ1 20-303 S80G) above, with G61S, S122A counted along it", "assay": "flow cytometry on cells; 293T cells transfected with full-length PILRA variants, 48 h; incubated with soluble NPDC1-mFc at 50 ug/ml for 30 min on ice; anti-PILRA (APC) and anti-mouse IgG2a (FITC); percent of double-positive cells relative to G78 PILRA (100%)"}, "[7]": {"biological_target": "PILRA Q140A, full length (human) (UniProt Q9UKJ1)", "sequence (Q9UKJ1 20-303 Q140A)": "as the sequence (Q9UKJ1 20-303 S80G) above, with G61S, Q121A counted along it", "assay": "flow cytometry on cells; 293T cells transfected with full-length PILRA variants, 48 h; incubated with soluble NPDC1-mFc at 50 ug/ml for 30 min on ice; anti-PILRA (APC) and anti-mouse IgG2a (FITC); percent of double-positive cells relative to G78 PILRA (100%)"}, "[8]": {"biological_target": "T1, PILRA G78 (AD risk) extracellular domain (1-196 aa) fused to murine IgG2a Fc (human, UniProt Q9UKJ1 20-196, R78G (by the check's mend))", "T1 construct": "signal peptide in the construct; PILRA, human, ECD residues 1-196 of AJ400841, glycine at position 78; also called G78 PILRA-mFc; PILRA-mFC; not shown: Fc (murine IgG2a), C-terminal, kept", "T1 sequence (Q9UKJ1 20-196 R78G)": "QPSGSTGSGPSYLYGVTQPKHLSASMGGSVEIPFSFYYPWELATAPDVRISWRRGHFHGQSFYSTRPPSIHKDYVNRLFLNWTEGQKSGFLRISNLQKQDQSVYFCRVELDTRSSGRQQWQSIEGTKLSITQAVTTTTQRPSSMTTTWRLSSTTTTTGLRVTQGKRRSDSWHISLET", "assay": "SPR; NPDC1-His binding to mIgG2a-tagged PILRA variants (S6C Fig); who was immobilised and the conditions not given", "conditions": "both partners purified"}, "[9]": {"biological_target": "PILRA R78 (AD protective, G78R) extracellular domain (1-196 aa) fused to murine IgG2a Fc (human) (UniProt Q9UKJ1)", "assay": "SPR; NPDC1-His binding to mIgG2a-tagged PILRA variants (S6C Fig); who was immobilised and the conditions not given"}}, "note": "Where two headings read alike, the source gives them in different places.", "data": [{"binder": "B1", "values": [{"measurement": "percent of G78 PILRA binding", "setting": "[1]", "value": "60 % of G78"}, {"measurement": "percent of G78 PILRA binding", "setting": "[2]", "value": "35 % of G78"}, {"measurement": "percent of G78 PILRA binding", "setting": "[3]", "value": "20 % of G78"}, {"measurement": "percent of G78 PILRA binding", "setting": "[4]", "value": "20 % of G78"}, {"measurement": "percent of G78 PILRA binding", "setting": "[5]", "value": "44 % of G78"}, {"measurement": "percent of G78 PILRA binding", "setting": "[6]", "value": "117 % of G78"}, {"measurement": "percent of G78 PILRA binding", "setting": "[7]", "value": "22 % of G78"}]}, {"binder": "B2", "values": [{"measurement": "Kd", "setting": "[8]", "value": 16.8, "unit": "nM"}, {"measurement": "kon", "setting": "[8]", "value": 22000, "unit": "M⁻¹ s⁻¹"}, {"measurement": "Kd", "setting": "[9]", "value": 76.5, "unit": "nM"}, {"measurement": "kon", "setting": "[9]", "value": 6800, "unit": "M⁻¹ s⁻¹"}]}]}
